The text below walks through data of US20210163580A1 (NATIONAL HEALTH RESEARCH INSTITUTES, published 2021).

The target of experiment [1] is T1, recombinant human RSPO3 protein (human, UniProt Q9BXY4 22-272).
T1 sequence (looked up): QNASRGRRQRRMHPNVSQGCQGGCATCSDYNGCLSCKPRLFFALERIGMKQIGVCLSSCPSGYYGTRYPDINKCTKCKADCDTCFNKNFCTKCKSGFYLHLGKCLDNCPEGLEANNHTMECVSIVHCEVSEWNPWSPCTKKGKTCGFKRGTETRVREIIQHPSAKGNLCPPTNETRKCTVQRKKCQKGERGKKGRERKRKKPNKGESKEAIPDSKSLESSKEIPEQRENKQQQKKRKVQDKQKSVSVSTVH
Description: cell-based or functional assay.

The target in experiment [2] is T1, recombinant human RSPO3 protein. Nature of the experiment: SPR (Biacore T200); hRSPO3 immobilised on CM5 chip, antibody injected, single-cycle, 1:1 model. On the procedure:
FIG. 7 is a graph showing use of Biacore to measure the binding kinetics of α-RSPO3 Abs-antigen interaction. The binding sensorgrams were generated using a Biacore T200 and then fitted to a simple 1:1 interaction model. […] The association was monitored for 2 min, and the final dissociation time was 15 min hRSPO3 was immobilized on a CMS chip at 27.5 RU.
The binding kinetics between α-RSPO3 Abs and recombinant human RSPO3 protein (hRSPO3) were performed at 25° C. using a Biacore T200 biosensor equipped with a CMS Series S Sensor Chip (GE Healthcare). […] Obtained sensorgrams were corrected by double subtracting the signal obtained on a reference surface and the signal of the running buffer. Sensograms were fit globally with BIAcore T200 evaluation software 3.0 using 1:1 binding model to yield affinity constants (KD values) for α-RSPO3 Abs. Replicate measurements were made in separate experiments, using independently prepared α-RSPO3 Abs dilution series and huRSPO3-coated chip surfaces.
A general note: In SPR one partner is held on a chip, and binding of the other changes the refractive index at the surface.

For experiment [3] the target is unchanged. Description: competition ELISA on coated hRSPO3; blocked ligand: biotinylated LGR5 (22-560)-Fc, streptavidin-HRP [A]. On the procedure:
After removing extra detection antibodies by washing the plates with 1× PBST, a TMB substrate solution was added to each well for 10 minutes.
Recombinant human RSPO3 (Peprotech) at 500 ng/ml was coated on the plates.
For orientation: An ELISA detects its analyte on a solid surface through an enzyme-linked reagent.

In the next experiment the target is T2, peptide B-40-47 (Homo sapiens, UniProt Q9BXY4, disulfide (positions not given here); also: biotinylated, intrachain disulfide, Cys pairing not given here).
T2 construct: synthetic cyclic peptide, a.a; also called cyclic peptide a.a; 40-47 derived from hRSPO3
T2 peptide (looked up): CQGGCATC
Description: ELISA: biotinylated cyclic peptide (1 µg/ml) on NeutrAvidin plate, hB1, anti-human IgG-Fc-HRP, OD 450 [B]. On the procedure: (§1) FIG. 9 is a set of schematics and graphs showing epitope studies of several α-RSPO3 antibodies. […] Streptavidin-HRP was then added for detection of the bound biotinylated antibody. (B) The biotinylated cyclic peptides, at 1 μg/ml, and biotinylated recombinant human RSPO3, at 100 ng/ml, were applied to NeutrAvidin pre-coated plates. […] To detect bound anti-RSPO3 antibodies, Goat anti-human IgG-Fc-HPR (Chemicon) was then applied to the plates.
(§2) Further conformation epitope studies of α-RSPO3 Abs were performed using recombinant RSPO3 truncated proteins and cyclic peptides scanning to narrow down their target sequences. […] RSPO3 contains a furin-like cysteine-rich region. Until now, the 3D structure of RSPO3 has not been reported. Additionally, four cyclic peptides (a.a. 40-47, 44-53, 56-75 and 79-94) were designed to measure the binding of α-RSPO3 mAbs to the cyclic peptides derived from hRSPO3.

The target in the next experiment is T3, peptide B-44-53 (Homo sapiens, UniProt Q9BXY4, disulfide (positions not given here); also: biotinylated, intrachain disulfide, Cys pairing not given here).
T3 construct: synthetic cyclic peptide, a.a; also called cyclic peptide a.a; 44-53 derived from hRSPO3
T3 peptide (looked up): CATCSDYNGC
The description is as above. On the procedure:
as §1, §2

The target in another experiment is T4, peptide B-79-94 (Homo sapiens, UniProt Q9BXY4, disulfide 1-16 (inferred); also: biotinylated).
T4 construct: synthetic cyclic peptide, a.a; also called cyclic peptide a.a; 79-94 derived from hRSPO3
T4 peptide (looked up): CPSGYYGTRYPDINKC
The description is as above. On the procedure:
as §1, §2

Positions of bridges follow the written chain, without caps; N, C: chain ends. No end group written: not given here.

B1: humanized anti-RSPO3 antibody hB1 (antibody, V domains shown)
VH: QIQLQESGPGLVKPSESLSLTCSVTGYSITSGYYWNWIRQFPGNGLEWMGYISYDGTNNYNPSLKDRISITRDTSKNQFFLKLNSVTAADTATYYCSVLLIQYFNIWGKGTTVTVSS
VL: DIQMTQSPSSLSASVGERVTITCRTSESVNNFLAWFHQKPGKSPKLLVYHAKTLADGVSSRFSGSGSGTQYSLKINSLQPEDFGNYYCQHFWSIPWTFGGGTKLEIKR
notes: Humanized from murine B1
For the molecule B1, the “IC50 in the WNT reporter assay (MDA-MB436 TCF/LEF-Luc, Wnt3a plus hRSPO3)” value in experiment [1] turned out to be 58 nM. In experiment [2], the dissociation constant (Kd) (usually the equilibrium constant for the complex coming apart) was determined as 0.0268 nM, the koff (commonly the rate constant with which the complex falls apart) came out at 3.4e-05 s⁻¹ and the kon (usually a measure of how fast the partners come together) turned out to be 1.7e+06 M⁻¹ s⁻¹. Moreover, the “IC50 (read off the curve)” value in experiment [3] is about 0.9 µg/mL. For the same molecule, the binding result in the experiment with peptide B-40-47 is “no binding”. Moreover, the binding result in the experiment with peptide B-44-53 is given as “no binding”. Also, the binding result with peptide B-79-94 is listed as “no binding”.
